Measured values taken from patent publication US7994123B2, “Hybrid proteins with ErbB4 extracellular domain and neuregulin heparin-binding domain for targeting” (Wayne State University, priority 2004, dated 2011).
Where “and” joins values, the source holds several entries; their conditions need not be identical. Equal entries are not always repeated.

Assays:
[1] = tested on: MCF10CA1 human breast cancer cells; assay: Cell proliferation assay, MCF10CA1; assay type: cell-based; conditions: IgB4 conditioned media, 10 μM AG1478 or 100 μg/ml Trastuzumab
Protocol: Cell proliferation assays: All three breast epithelial cell lines were plated at 5000 cells/well in 48 well plates in regular MCF10A/AT or MCF10CA1 media. After incubation for 3 days, 1 nM NRG in MCF10A/AT media or just MCF10A/AT media alone were applied to the cells for another 24 hours followed by washing them with culture media and then counting cell numbers using an hemocytometer on the 4th, 5th, 6th, 7th and 8th day.
(§1) After 2 days, the Optimem I conditioned media was concentrated by Centricon at 4° C. 40 μl of IgB4 conditioned media or 10 μM of tyrosine kinase inhibitor AG1478 were combined with […] 1 nM NRG in MCF10A/AT media for 15 min at room temperature before being added to MCF10CA1 cells for 30 min treatment. […] The amount of each antagonist was determined empirically based on its ability to block NRG-induced activation of L6 cells.

[2] = tested on: erbB receptor phosphorylation (p185) in MCF10CA1 cells; assay: p185 receptor phosphorylation western blot, MCF10CA1; assay type: cell-based, human; conditions: 1 nM NRG, 30 min
Protocol: Western blots and L6 muscle assays: P185 receptor phosphorylation of the three cell lines was measured by phosphotyrosine western blots after NRG treatment for 30 min on 3 day old cultures as described in WO 03/012045 and Li Q & Loeb J A (2001) J Biol Chem; 276:38068-75. […] The media was discarded and phosphotyrosine western blots were performed as above. The membranes were stripped and reprobed with polyclonal rabbit erbB2 for the detection of overall erbB2 protein that was used for quantitation.
as §1

[3] = tested on: erbB receptor phosphorylation (p185) in L6 cells; assay: L6 assay: block of NRG-induced erbB receptor phosphorylation (p185); assay type: cell-based; conditions: comparable amounts of antagonist with 50 pM NRG (IG-EGF form), 45 min
Protocol: (§2) 4. Cell culture: The L6 cells were cultured in DMEM supplemented with 10% fetal calf serum, 1 mM L-glutamine and 1000 U/ml penicillin/streptomycin at 37° C. in 10% CO2 incubator. The HEK293 cells were cultured in DMEM with 10% fetal calf serum, 1 mM L-glutamine, 2 mM sodium pyruvate, 0.1 mM non-essential amino acids, 1000 U/ml penicillin/streptomycin at 37° C. in 10% CO2 incubator. The selective antibiotics Geneticin 200 μg/ml (Gibco-Invitrogen) was added to the cell cultures of stably transfected HEK293 cells harboring the NRG antagonists. 5. Stable expression of NRG antagonists in HEK293 cells: HEK293 cells were cultured in […] flasks to 80% confluence and transfected with the four NRG antagonist constructs using lipofectamine 2000 (Invitrogen Life Science) as instructed. The antibiotic Geneticin was then added at a concentration of 400 μg/ml to the transfected HEK293 cells to select the positive antagonist transfected cells. After three weeks of Geneticin selection, the transfected HEK293 cells were diluted and plated in 96 well plates to yield single positive clones. The single clones that expressed the highest levels of antagonists (confirmed by western blot using HA antibody) were then maintained in culture media with 200 μg/ml Geneticin. Optimem I (Gibco-Invitrogen) was applied to the stably transfected NRG antagonist cell lines at 37° C. in 10% CO2 incubator for 2 days. The conditioned Optimem I media was then used in the following experiments. 6. Heparin column binding: The conditioned media containing the four NRG antagonists was passed through the heparin column to allow binding to heparin. The excessive unbound antagonist proteins were washed off by 1×PBS twice. The antagonist proteins were then eluted by increasing concentration of NaCl (0.25, 0.3, 0.4, 0.5, 0.6 and 1M). The flow through solution from each step was examined by anti-HA western blots, as described later, to determine heparin binding ability of the antagonists. 7. Purification and quantitation of recombinant proteins: The NRG antagonists were purified by anti-HA affinity matrix (3F10) (rat mAb) according to manufacturer's instructions. Briefly, the column was equilibrated with buffer containing 20 mM Tris pH 7.5, 0.1 M NaCl, 0.1 M EDTA, and each antagonist in conditioned medium was applied individually to the anti-HA affinity matrix. Excess unbound antagonist proteins were washed with 20 volume of washing buffer (20 mM Tris pH 7.5, 0.1 M NaCl, 0.1 M EDTA and 0.05% Tween 20). The bound NRG antagonists were eluted with 0.1 M glycine (pH 2). The purified recombinant protein was then quantified using a BioRad Protein Assay kit (Bio-Rad, Hercules, Calif.) 8. Silver stain: Both the conditioned media and the purified NRG antagonists were resolved on 7.5% reducing SDS-polyacrylamide gels. The gel was fixed with 30% ethanol and 10% acetic acid for 30 min. 10% ethanol and ultrapure water were used subsequently to wash the gel before staining with SilverSNAP stain solution with enhancer for 30 min. The gel was then developed using SilverSNAP developer solution with enhancer. 5% acetic acid was used to stop the reaction when the desired band intensity was reached. The gel was dried on filter paper using a vacuum gel dyer. 9. […] Positive control L6 cells were treated with 50 pM NRG alone. L6 cell lysates were prepared and run on 5% SDS-PAGE gel. Western blots of erbB receptor phosphorylation were performed using 4G10 antibody. 10. Western blot: Western blots were performed on both conditioned NRG antagonist media and the antagonist-treated L6 cells. The antagonist proteins and the L6 cells were solubilized in SDS sample buffer and boiled for 5 min as described above (see also Li et al., supra). The NRG antagonists run on 7.5% SDS-PAGE gel were detected by anti-HA mAb HA.11. Phosphotyrosine mAb 4G10 was used to detect phosphorylated erbB receptor (p185) in L6 cell western blot analysis following resolution on overrun 5% reducing SDS-polyacrylamide gels. […]

Heparin column binding = conditions: for binding to heparin column: conditioned media, anti-HA western blot of flow through and elution
Protocol: as §2

binding to heparin column (Heparin column binding)	NaCl concentration needed to elute from heparin column (Heparin column binding; elution with increasing NaCl (0.25-1 M))	Molecule	MCF10CA1 proliferation with exogenous NRG ([1]; 1 nM NRG)	MCF10CA1 growth rate without exogenous NRG [1]	EGF receptor phosphorylation (lower band) [2]	exogenous NRG-induced p185 erbB receptor phosphorylation ([2]; IgB4 conditioned media, AG1478 or 100 μg/ml Trastuzumab (24 h pre-treatment))	effect on NRG-induced p185 erbB receptor phosphorylation [3]
–	–	COc1cc2ncnc(Nc3cccc(Cl)c3)c2cc1OC [AG1478, reference compound]	reduced the growth rate	reduced the growth rate	reducing both p185 (erbB2/3, upper band) and EGF receptor phosphorylation (lower band) in a dose dependent manner	blocked NRG-induced erbB signaling	–
did not	–	B4-HA: extracellular domain of erbB4 expressed alone without the HBD, HA tag (control) (protein, left off: small tags and cut ends) VCAGTENKLSSLSDLEQQYRALRKYYENCEVVMGNLEITSIEHNRDLSFLRSVREVTGYVLVALNQFRYLPLENLRIIRGTKLYEDRYALAIFLNYRKDGNFGLQELGLKNLTEILNGGVYVDQNKFLCYADTIHWQDIVRNPWPSNLTLVSTNGSSGCGRCHKSCTGRCWGPTENHCQTLTRTVCAEQCDGRCYGPYVSDCCHRECAGGCSGPKDTDCFACMNFNDSGACVTQCPQTFVYNPTTFQLEHNFNAKYTYGAFCVKKCPHNFVVDSSSCVRACPSSKMEVEENGIKMCKPCTDICPKACDGIGTGSLMSAQTVDSSNIDKFINCTKINGNLIFLVTGIHGDPYNAIEAIDPEKLNVFRTVREITGFLNIQSWPPNMTDFSVFSNLVTIGGRVLYSGLSLLILKQQGITSLQFQSLKEISAGNIYITDNSNLCYYHTINWTTLFSTINQRIVIRDNRKAENCTAEGMVCNHLCSSDGCWGPGPDQCLSCRRFSRGRICIESCNLYDGEFREFENGSICVECDPQCEKMEDGLLTCHGPGPDNCTKCSHFKDGPNCVEKCPDGLQGANSFIFKYADPDRECHPCHPNCTQGCNGPTSHDCIYYPWTGHSTLPQHAKN	–	–	–	–	little effect
bound the heparin column	> 1 M and 1 M	HBD-S-B4-HA: fusion polypeptide: NRG heparin-binding domain, glycosylated spacer, erbB4 extracellular domain, C-terminal HA tag (protein, left off: small tags and cut ends) QSGYKKKERGSGKKPESAAGSQSPALPPRLKEMKSQESAAGSKLVLRCETSSEYSSLRFKWFKPNGNELNRKNKQNIKIQKKPGKSELRINKASLADSGEYMCKVISKLGNDSASANITIVESNEIITGMPASTEGAYVSSESPIRISVSTEGANTSSSTSTSTTGTSGTQSVCAGTENKLSSLSDLEQQYRALRKYYENCEVVMGNLEITSIEHNRDLSFLRSVREVTGYVLVALNQFRYLPLENLRIIRGTKLYEDRYALAIFLNYRKDGNFGLQELGLKNLTEILNGGVYVDQNKFLCYADTIHWQDIVRNPWPSNLTLVSTNGSSGCGRCHKSCTGRCWGPTENHCQTLTRTVCAEQCDGRCYGPYVSDCCHRECAGGCSGPKDTDCFACMNFNDSGACVTQCPQTFVYNPTTFQLEHNFNAKYTYGAFCVKKCPHNFVVDSSSCVRACPSSKMEVEENGIKMCKPCTDICPKACDGIGTGSLMSAQTVDSSNIDKFINCTKINGNLIFLVTGIHGDPYNAIEAIDPEKLNVFRTVREITGFLNIQSWPPNMTDFSVFSNLVTIGGRVLYSGLSLLILKQQGITSLQFQSLKEISAGNIYITDNSNLCYYHTINWTTLFSTINQRIVIRDNRKAENCTAEGMVCNHLCSSDGCWGPGPDQCLSCRRFSRGRICIESCNLYDGEFREFENGSICVECDPQCEKMEDGLLTCHGPGPDNCTKCSHFKDGPNCVEKCPDGLQGANSFIFKYADPDRECHPCHPNCTQGCNGPTSHDCIYYPWTGHSTLPQHAKN	–	–	–	–	dramatically reduced erbB receptor activation
did not	–	HBD-B4-HA: fusion polypeptide: NRG heparin-binding domain N-terminal to erbB4 extracellular domain, no spacer, HA tag (protein, left off: small tags and cut ends) SAAGSQSPALPPRLKEMKSQESAAGSKLVLRCETSSEYSSLRFKWFKNGNELNRKNKPQNIKIQKKPGKSELRINKASLADSGEYMCKVISKLGNDSASANITIVEVCAGTENKLSSLSDLEQQYRALRKYYENCEVVMGNLEITSIEHNRDLSFLRSVREVTGYVLVALNQFRYLPLENLRIIRGTKLYEDRYALAIFLNYRKDGNFGLQELGLKNLTEILNGGVYVDQNKFLCYADTIHWQDIVRNPWPSNLTLVSTNGSSGCGRCHKSCTGRCWGPTENHCQTLTRTVCAEQCDGRCYGPYVSDCCHRECAGGCSGPKDTDCFACMNFNDSGACVTQCPQTFVYNPTTFQLEHNFNAKYTYGAFCVKKCPHNFVVDSSSCVRACPSSKMEVEENGIKMCKPCTDICPKACDGIGTGSLMSAQTVDSSNIDKFINCTKINGNLIFLVTGIHGDPYNAIEAIDPEKLNVFRTVREITGFLNIQSWPPNMTDFSVFSNLVTIGGRVLYSGLSLLILKQQGITSLQFQSLKEISAGNIYITDNSNLCYYHTINWTTLFSTINQRIVIRDNRKAENCTAEGMVCNHLCSSDGCWGPGPDQCLSCRRFSRGRICIESCNLYDGEFREFENGSICVECDPQCEKMEDGLLTCHGPGPDNCTKCSHFKDGPNCVEKCPDGLQGANSFIFKYADPDRECHPCHPNCTQGCNGPTSHDCIYYPWTGHSTLPQHAKN	–	–	–	–	little effect
